How the values were obtained:
[1] = target: T1, HLA-A2.1 molecules on T2 (TAP-, HLA-A2.1+) cells (human); test: T2 cells, HLA-A2.1 stabilisation, BB7.2 immunofluorescence FACS
[2] = target: T1, HLA-A2.1 molecules on T2 (TAP-, …); test: T2 cells, decay of surface peptide-HLA-A2.1 complexes, FACS
[3] = target: T1, HLA-A2.1 molecules on T2 (TAP-, …); test: T2 cells, HLA-A2.1 stabilisation, indirect immunofluorescence FACS

Row | Binder | relative affinity (RA) (ratio to reference peptide HIV 1 rt.476) [1] | DC50 (half-life of peptide-HLA-A2.1 complexes) [2] [h] | relative affinity (RA) (ratio to reference peptide I9V) [3]
1 | VLYRYGSFSV (modifications not checked) [gp100.476] | 10 | – | –
2 | LLDGTATLRL (modifications not checked) [gp100.457] | 1.65 | – | –
3 | KLTPLCVSL (modifications not checked) [K9L] | – | > 6 | 1.35
4 | YMNGTMSQV (modifications not checked) [Tyrosinase.368-N] | 2.2 | > 8 | –
5 | MLLAVLYCL (modifications not checked) [Tyrosinase.1] | > 60 | – | –
6 | FLWGPRALV (modifications not checked) [MAGE-3.271] | – | 6 | –
7 | ILTVILGVL (modifications not checked) [Melan-A/MART-1.32] | 21.1 | – | –
8 | VLPDVFIRC (modifications not checked) [NA17-A.nt38] | 1.52 | > 8 | –
9 | RMPEAAPPV (modifications not checked) [p53.65] | 0.91 | – | –
10 | LLDTGADDTV (modifications not checked) [L10V] | – | < 2 | 10
11 | IISAVVGIL (modifications not checked) [Her2/neu.654] | – | 4 | –
12 | YMDGTMSQV (modifications not checked) [Tyrosinase.368-D] | 2.27 | > 6 | –
